Reference: patent US20080242633A1

Target: Apaf-1 (UniProt O14727)
Experiment: cell-based or functional assay

Chain of UniProt O14727 (O14727 whole entry): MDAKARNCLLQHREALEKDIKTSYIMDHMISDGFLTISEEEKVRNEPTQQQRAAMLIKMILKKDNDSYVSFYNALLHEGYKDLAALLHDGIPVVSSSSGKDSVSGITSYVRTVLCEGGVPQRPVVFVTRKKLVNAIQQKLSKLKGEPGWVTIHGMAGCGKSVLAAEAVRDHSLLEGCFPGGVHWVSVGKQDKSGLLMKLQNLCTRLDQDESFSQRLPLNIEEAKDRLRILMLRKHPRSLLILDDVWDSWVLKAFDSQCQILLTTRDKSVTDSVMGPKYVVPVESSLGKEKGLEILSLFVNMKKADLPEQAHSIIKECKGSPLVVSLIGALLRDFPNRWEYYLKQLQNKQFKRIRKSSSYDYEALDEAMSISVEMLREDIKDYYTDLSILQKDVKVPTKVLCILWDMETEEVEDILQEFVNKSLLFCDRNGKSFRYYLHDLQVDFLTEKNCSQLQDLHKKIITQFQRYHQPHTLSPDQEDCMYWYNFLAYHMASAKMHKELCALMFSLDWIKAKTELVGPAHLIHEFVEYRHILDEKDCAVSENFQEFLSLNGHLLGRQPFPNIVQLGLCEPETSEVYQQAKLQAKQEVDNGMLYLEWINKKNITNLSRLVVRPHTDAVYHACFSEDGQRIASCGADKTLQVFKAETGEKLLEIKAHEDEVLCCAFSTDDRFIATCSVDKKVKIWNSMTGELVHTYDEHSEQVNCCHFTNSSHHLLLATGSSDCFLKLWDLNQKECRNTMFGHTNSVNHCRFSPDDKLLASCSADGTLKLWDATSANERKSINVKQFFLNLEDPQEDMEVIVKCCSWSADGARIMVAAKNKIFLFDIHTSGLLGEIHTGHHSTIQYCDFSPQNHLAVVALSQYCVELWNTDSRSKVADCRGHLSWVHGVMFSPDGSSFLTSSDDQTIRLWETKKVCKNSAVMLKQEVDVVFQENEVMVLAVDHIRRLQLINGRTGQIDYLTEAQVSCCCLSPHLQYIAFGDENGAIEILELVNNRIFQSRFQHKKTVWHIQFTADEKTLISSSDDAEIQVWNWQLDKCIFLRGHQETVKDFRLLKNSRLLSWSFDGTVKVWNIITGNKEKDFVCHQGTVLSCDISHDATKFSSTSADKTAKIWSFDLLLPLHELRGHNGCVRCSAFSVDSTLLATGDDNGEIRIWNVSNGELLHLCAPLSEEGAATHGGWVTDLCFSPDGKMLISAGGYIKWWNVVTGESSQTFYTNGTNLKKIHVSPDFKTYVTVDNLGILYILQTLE

Substance: CYCS(Gly42-Ser) (from UniProt P99999 2-105)
- caspase-3 activation activity (AMC production rate from Ac-DEVD-AMC, cell-free assay with U-937 cytosol) (fold greater than wild type): 1.4
